Measured values taken from patent US10054602B2, “Conjugate of estradiol and applications thereof” (CHRIST UNIVERSITY, priority 2016, dated 2018).
“Also recorded” adds a separate entry of the source. Like-named read-outs stand apart in the source and are kept apart here.

Experiments:
MCF-7 cells = assay: inhibition of nuclear entry of estrogen conjugated dye in MCF-7 cells; type: cell-based, Human
Protocol: The estrogenic activity is examined using human mammary carcinoma MCF-7 cells. The cells are cultured with various concentrations of Diethylstilbestrol (DES) and estrogen conjugated dye for more than 5 days and then the cells were counted.
A very clear distinction on non-specific binding is observed and the binding is only seen in the cytoplasm.

[1] = tissue kinetics in tumor tissue after injecting; type: in vivo; settings: for half-life: in tumor tissue, read-out: tissue-efflux half-life
[2] = ICG as standard; cited from earlier work
MCF-7 [ER+] cells = assay: NIRF staining / confocal laser microscopy of MCF-7 cells; type: cell-based, Human; settings: for cellular localisation / binding of fluorescence: MCF-7 (ER+), confocal microscopy, 1 μM
Protocol: (§1) Human breast cancer cell lines MCF-7 [ER+] and MDA-MB-231 [ER-] are obtained from National Centre for Cell science (NCCS (Pune)). The cells are cultured, revived and the experiments are carried out at Advanced Centre for Treatment, Research and Education in Cancer (ACTREC) of Tata Memorial Centre (Mumbai).
(§2) MCF-7 and MDA-MB-231 cells are cultured in DMEM/F12 medium without phenol red (ACTREC, Mumbai) supplemented with 10% fetal bovine serum. Cells in suspension (50 μl) are added to each well of a 96-well culture plate for a final concentration of 1×10^3 Cells/well and incubated for 24 h at 37° C. in carbon dioxide chamber.
The NIRFDC with initial concentration of 24.5 mg/2 ml of DMSO solution is added to each well, and the cultures further incubated for 2 h. The cells are treated at different concentration levels of 1:10, 1:50, 1:100, 1:500 and 1:1000 of DMSO. The cells were then re-suspended in 100 μl of 0.04N HCl/isopropanol solution.
Cell smears are prepared by rolling the swab across the top half of the well of a microscope slide. The opposite side of the swab is rolled over the bottom half of the well. There after the slide is allowed to air dry completely. Then the slide is fixed in chilled (2° to 8° C.) acetone for 10 minutes, which is further removed and allowed to air dry completely. Slides are stored at ≤−20° C. with desiccant. On completion, the cells are re-suspend to at least 400 μL in phosphate buffered saline and 200 μL is applied to each slide by cento-centrifugation at 800 rpm for 4 minutes [Br. J Cancer. 58:77-80, (1988)]. This procedure is repeated for fixing both the cell lines.
The smears are stained with the conjugate at different dilutions of 1:10, 1:50, 1:100, 1:500 and 1:1000 and incubated for an hour at about 25° C. Thereafter these cells are given 3 washes of phosphate buffered saline, mounted with DPX (Distrene Plasticyser Xylene) covered and imaged using the Olympus Confocal microscope.
MCF-7 cells maintained at 37° C. in a 5% CO2 atmosphere in phenol red-free minimal essential medium (MEM) containing 10% charcoal stripped calf serum and penicillin, streptomycin, glutamine, are incubated for 4 days in 24 multiwells (NUNC). After 4 days of culture, the medium is removed and the cells are incubated for 1 hour at 37° C. with […] at concentrations ranging from 0.3 nM to 1 nM. Medium is removed and the cells are washed twice with phosphate buffer saline (PBS). 250 μl of absolute ethanol is added to each well (exposition during 20 min).
The in-vitro studies are carried out using the inverted lens Olympus Fluo-View Confocal Microscope. The sample is excited at 754 nm and the emissions are observed using PMT having relatively higher quantum efficiency in the NIR-region.
(§3) These cells retained several characteristics of differentiated mammary epithelium including ability to process estradiol via Nuclear and cytoplasmic estrogen receptors and the capability of forming domes. MBA-MB-231 breast cancer cell lines are used as the control. […] The nuclear staining is pivotal towards early detection of cancer as 80% of the breast cancer reported are ER+ and could be detected by this characteristic feature. […]
In-vitro fluorescence signal of malignant cells bearing estrogen receptor positive with the control (cells without intracellular estrogen receptors) are studied. Fluorescence intensity generated by the NIRF Dye-Conjugate in particular to the nucleus and the entire cell is plotted as shown in the (FIG. 6 A, B). […]

[3] = optical properties of dye (absorption, emission, quantum yield); type: physicochemical; settings: for absorption maxima (wavelength): solvent not stated; for Quantum yield φ: ICG as standard
Protocol: The increased fluorescence quantum yield of the hydrophilic derivatives reduces the risk of the forming fluorescence-quenched aggregation. […] Thus the conjugate can be used for tagging estradiol because of its ability to form monoderivatized activated precursors as it has a carboxylic group which can be tailored to attach to functional groups of biomoloecules like estradiol.
The excitation and emission peaks for the conjugate are recorded in the NIR region as 757 nm and 788 nm respectively. The potential of the compound in the application as contrast agents for fluorescence imaging modalities, where the fluorescence emission of the dye is expected to be detectable in high sensitivity above low tissue background is analysed on the breast cancer cell lines MCF-7/MDA-MB-231.

[4] = target: T1, Estrogen receptor (ER) in human breast cancer tissues (Homo sapiens, UniProt P03372); assay: ER staining of breast carcinoma tissue sections; settings: Non-invasive Ductal, Lobular, Adenocarcinoma and Medullary Carcinoma
T1 construct: from tissue; host or cells: human breast carcinoma tumor tissue, formalin-fixed paraffin sections
T1 sequence (P03372 whole entry): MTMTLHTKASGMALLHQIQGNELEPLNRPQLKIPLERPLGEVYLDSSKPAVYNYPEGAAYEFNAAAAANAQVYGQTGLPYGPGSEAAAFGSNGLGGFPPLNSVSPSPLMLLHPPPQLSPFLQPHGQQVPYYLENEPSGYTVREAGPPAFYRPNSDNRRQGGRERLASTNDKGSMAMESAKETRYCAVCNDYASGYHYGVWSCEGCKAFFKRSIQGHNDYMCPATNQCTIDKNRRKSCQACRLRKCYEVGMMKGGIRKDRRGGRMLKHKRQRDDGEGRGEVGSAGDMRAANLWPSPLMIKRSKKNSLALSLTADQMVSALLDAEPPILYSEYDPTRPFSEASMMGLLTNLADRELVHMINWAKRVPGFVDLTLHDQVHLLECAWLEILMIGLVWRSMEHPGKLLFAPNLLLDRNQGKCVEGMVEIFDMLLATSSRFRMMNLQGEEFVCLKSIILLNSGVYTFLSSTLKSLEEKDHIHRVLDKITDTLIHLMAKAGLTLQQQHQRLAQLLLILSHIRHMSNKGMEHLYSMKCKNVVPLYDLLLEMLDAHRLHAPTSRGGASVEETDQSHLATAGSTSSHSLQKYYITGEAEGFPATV
Protocol: The avidin-biotin-peroxidase complex method is used for the paraffin sections fixed in cold buffered formalin and the results are compared with the ER content in the respective tumor tissue. The specific staining for ER is located exclusively in the nuclei of cancer cells in paraffin sections.
The tumor pieces are fixed in buffered formalin (0.1 M sodium phosphate, pH 7.4/10% formalin) for 24 hr at […]. After being rinsed overnight at […]. in 0.1 M sodium phosphate (pH 7.4), they are dehydrated with graded ethanol and embedded in paraffin. Paraffin sections (4 μm) are cut, deparaffinized with xylene, and rinsed thoroughly with absolute ethanol. Then they are soaked in absolute methanol containing 0.3% H2O2 for 30 min at 25° C. to decrease the endogenous peroxidase activity. The sections were washed three times with 50 mM Tris-HCl, pH 7.6/137 mM NaCl (Tris/NaCl) and were incubated with serum (10% in Tris/NaCl) for 30 min at 25° C. so as to reduce the nonspecific staining. Excess serum is removed by blotting. I˜g/ml) or with normal rat IgG (10 A·g/ml) for 30 min at 37° C. After being washed with Tris/NaCl. […]

plasma protein binding = type: in vitro ADME
cell lines = assay: toxic effect on the cell lines; type: cell-based; settings: glucosammonium ion in place of sodium ion
MDA-MB-231 [ER-] cells = assay: NIRF staining / confocal laser microscopy of MDA-MB-231 control cells; type: cell-based, Human; settings: 1 μM
Protocol: as §1
as §2, with “chamber. […]” for “chamber.”
as §3, with “domes.” for “domes. MBA-MB-231 breast cancer cell lines are used as the control.”
The cell lines are not controlled by the estrogen and lack the estrogen activity in the nucleus. After additional incubation under conditions permitting membrane traffic and thus endocytosis, fast and thorough internalization of ligand-receptor complexes into an intracellular compartment could be detected. […]

[5] = partition coefficient studies; type: physicochemical

For `CC/C(=C(/CC)c1ccc(O)cc1)c1ccc(O)cc1` [Diethylstilbestrol], the “blocking of entry of the estradiol conjugate into the nucleus” value (shortened to “blocking”) (MCF-7 cells) was “inhibited the entry of the estradiol into the nucleus” and the “blocking” value (MCF-7 cells; listed as DES) was “blocking operation of the estrogen conjugated dye from entering the nucleus”.

In the case of `CC1(C)C(/C=C/C=C/C=C/C=C2\N(CCCCS(=O)(=O)O)c3ccc4ccccc4c3C2(C)C)=[N+](CCCCS(=O)(=O)[O-])c2ccc3ccccc3c21` [ICG, Indocyanine Green, reference compound], the half-life ([1]; other: injection (type not specified)) is listed as < 0.167 h, the “quantum yield φ of the standard” value [2] is listed as 0.13 and the “cellular localisation / binding of fluorescence” value (“cellular localisation / binding” below) (MCF-7 [ER+] cells) is listed as “only stains the cells without entering the nucleus of the cell”. The “absorption maxima (wavelength)” value [3] was 780.

In the case of `CC/C(=C(\c1ccccc1)c1ccc(OCCN(C)C)cc1)c1ccccc1` [Tamoxifen], the “blocking” value (MCF-7 cells) is reported as “inhibited the entry of the estradiol into the nucleus; also recorded: blocking operation of the estrogen conjugated dye entering the nucleus”.

In the case of `CC1(C)C(/C=C/C=C/C=C/C=C2\N(CCCCS(=O)(=O)O)c3ccc(C(=O)Oc4ccc5c(c4)CCC4C5CC[C@@]5(C)C4CC[C@@H]5O)cc3C2(C)C)=[N+](CCCCS(=O)(=O)[O-])c2ccc(C(=O)Oc3ccc4c(c3)CCC3C4CC[C@@]4(C)C3CC[C@@H]4O)cc21` (stereo partly drawn) [conjugate], the “initial tissue absorption coefficient compared to ICG” value ([1]; in vivo) is reported as “two-fold higher”, the half-life ([1]; other: injection (kind of injection not stated)) is reported as 1.22 h and the tumor-to-tissue concentration gradient ([1]; up to one hour after injecting) is reported as “elevated tumor-to-tissue concentration gradient for up to one hour after injecting”. The “signal intensity of MCF-7 cells compared to MDA-MB-231” value (MCF-7 [ER+] cells; 24 h) was ~2.4 fold, the “cellular localisation / binding” value (MCF-7 [ER+] cells) was “specific high affinity binding sites of estrogen molecule on to the nucleus and membrane” and the “cellular localisation / binding” value (MCF-7 [ER+] cells; listed as NIRFD-conjugate) was “majority of the receptor-associated fluorescence co-localized at the Nucleus and a minority in the plasma membrane”. For the same compound, the “cellular localisation / binding” value (MCF-7 [ER+] cells; listed as NIRFDC) was “very clear localization of conjugated dye in the nucleus; also recorded: significant amount of binding is seen in the nucleus”, the “ER staining of carcinoma tissue” value [4] was “ER staining which are confined to the nuclei” and the fraction unbound (plasma protein binding) was > 0.5. The “toxic effect on the cell lines” value (cell lines) was “reduce the toxic effect on the cell lines”, the “Stokes' shift of fluorescence maximum” value [3] was 38 nm and the “Strokes' shift” value ([3]; DMSO) was 30. For the same compound, the λmax absorption ([3]; DMSO) was 757 nm, the λmax emission ([3]; DMSO) was 787 nm and the “Quantum yield φ” value ([3]; DMSO) was 0.114. For the same compound, the emission peak ([3]; NIR region) was 788 nm, the excitation peak ([3]; NIR region) was 757 nm and the “Strokes' shift” value ([3]; PBS) was 33. The λmax absorption ([3]; PBS) was 755 nm, the λmax emission ([3]; PBS) was 788 nm and the “Quantum yield φ” value ([3]; PBS) was 0.110. The “enhancement of fluorescence quantum yields with respect to ICG” value ([3]; physiological environment) was 7-15%, the “absorption maxima (wavelength)” value [3] was 757 and the “cellular localisation / binding” value (MDA-MB-231 [ER-] cells) was “only the plasma membrane staining”. For the same compound, the “cellular localisation / binding” value (MDA-MB-231 [ER-] cells; listed as NIRFDC) was “poor binding of conjugate into the nucleus” and the partition coefficient [5] was “less than 0.005”.
